Measurements published in patent US20190345234A1 (CENTRE HOSPITALIER UNIVERSITAIRE VAUDOIS, published 2019).

Target: Fc-gamma receptor I (CD64) (UniProt P12314 16-374)
Assay: cell-based or functional assay

Fc-gamma receptor I (CD64), sequence (P12314 16-374 limits assumed, form in doubt): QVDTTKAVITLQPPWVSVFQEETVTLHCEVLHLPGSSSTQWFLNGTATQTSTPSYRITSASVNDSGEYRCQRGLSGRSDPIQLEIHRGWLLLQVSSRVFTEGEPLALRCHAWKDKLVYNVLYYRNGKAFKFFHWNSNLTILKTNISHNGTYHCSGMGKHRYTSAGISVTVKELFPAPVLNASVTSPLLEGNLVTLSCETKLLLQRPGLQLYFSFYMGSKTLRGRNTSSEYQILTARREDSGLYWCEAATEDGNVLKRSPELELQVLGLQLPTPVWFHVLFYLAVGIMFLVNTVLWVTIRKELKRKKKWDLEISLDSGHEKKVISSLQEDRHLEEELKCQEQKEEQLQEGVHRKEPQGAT

B1: IgG1 LN01 antibody (antibody, V domains shown)
VH: EVQLVESGPGLVQPWGTLSLTCRVSGDSVSNDNYYWAWIRQTPGRELQVIGTIYYSGTTYYNPSLRNRVTISLDKSVNVVSLRLGSVSAADTAQYYCVRMPSHGFWSTSFSYWYFDLWGRGHFVAVSW
VL: DIQMTQSPSSLSASVGDKVTITCRASQSVTKYLNWYQFKTGQAPRILIYGTYTLLSGVSPRFSGAGSGSLYTLTITNIQPEDFATYYCQQAHSTPWTFGQGTHVAAN
  neutralizing activity on TZM-bl cells expressing Fc-gamma receptor I against parental TZM-bl cells: 100 fold
